These results are taken from US20230235013A1 (MABSOLVE, published 2023).

Experiment [1] deals with T1, Histidine-tagged recombinant human FcγRI (CD64) (human, UniProt P12314 16-288, limits assumed).
T1 construct: bought
The experiment can be described thus: SPR, His-FcγRI captured; mean.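 Note: biacore T200 SPR at 25 °C, anti-His surface capturing FcγRI, Fc-variant antibodies injected at 100 µg/mL for 1 min, signal near injection end minus third buffer blank, three repeats.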

In experiment [2] the target is T1, Histidine-tagged recombinant human …. Briefly: SPR, His-FcγRI captured; Expt 1.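 Note: SPR at 25 °C on anti-His antibody chip capturing FcγRI, Fc-variant antibodies injected at 100 µg/mL for 1 min, signal near end of injection minus buffer blank.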
Experiment [3] shares this target. Briefly: SPR, His-FcγRI captured; Expt 2.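 Note: biacore T200 SPR at 25 °C, Fc-variant antibodies at 100 µg/mL flowed 1 min over anti-His-captured receptor, signal read near injection end minus third buffer blank; antibody analyte injected at 100 µg/mL for 1 min.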 For orientation: SPR reads the build-up and loss of mass on a sensor chip optically.
Method: Binding analysis was carried out by surface plasmon resonance at 25° C. using a Biacore® T200 instrument with Biacore® T200 control software. The sample compartment was held at 5° C. The running buffer (HBS-EP+) consisted of 0.01 M HEPES pH 7.4, containing 0.15 M NaCl, 3 mM EDTA, and 0.05% v/v Surfactant P20. Methods were run using the manufacturer's standard method wizards as described in the Biacore® T200 Instrument Handbook.
The cell was activated by treatment with EDC/NHS for 7 min. The antibody was diluted to 10 μg/mL in 10 mM sodium acetate pH 5.0 and injected for 7 min at 5 μL/min. The flow cell was deactivated by injection of 1M ethanolamine for 7 min. This process was repeated in the absence of anti-his antibody on a separate flow cell to generate a reference surface. […] Samples of purified antibodies comprising variant Fc regions (1 mg/mL in PBS) were diluted with running buffer to 100 μg/mL and were injected for 1 min at 30 μL/min and allowed to disassociate for 2 min. Between each cycle, the chip was regenerated by injection of 10 mM glycine pH 3.0 for 0.5 min at a flow rate of 30 μL/min and recharged with a fresh injection of FcγRI. At the beginning of each experiment, three blank cycles were run, with buffer alone being injected instead of test sample. The average SPR signal (relative to the reference cell) was measured in a window approximately 8 to 13 seconds before the injection of test sample (baseline) and approximately 3 to 8 seconds before the end of injection (response). The response of the third of the blank (buffer) samples was subtracted from the response of each test sample in order to allow for any dissociation of the bound FcγRI giving a corrected response for each test sample. The whole experiment was repeated three times with the test samples being analysed in different orders each time.
Experiment [4] shares this target. Briefly: SPR, His-FcγRI captured; Expt 3.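 Note: biacore T200 SPR at 25 °C, Fc-variant antibodies at 100 µg/mL flowed 1 min over anti-His-captured FcγRI, signal taken just before injection end minus a buffer blank cycle; antibody analyte injected at 100 µg/mL for 1 min.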

B1: anti-CD20 human IgG1 L234A/L235T/G236R (antibody)
heavy: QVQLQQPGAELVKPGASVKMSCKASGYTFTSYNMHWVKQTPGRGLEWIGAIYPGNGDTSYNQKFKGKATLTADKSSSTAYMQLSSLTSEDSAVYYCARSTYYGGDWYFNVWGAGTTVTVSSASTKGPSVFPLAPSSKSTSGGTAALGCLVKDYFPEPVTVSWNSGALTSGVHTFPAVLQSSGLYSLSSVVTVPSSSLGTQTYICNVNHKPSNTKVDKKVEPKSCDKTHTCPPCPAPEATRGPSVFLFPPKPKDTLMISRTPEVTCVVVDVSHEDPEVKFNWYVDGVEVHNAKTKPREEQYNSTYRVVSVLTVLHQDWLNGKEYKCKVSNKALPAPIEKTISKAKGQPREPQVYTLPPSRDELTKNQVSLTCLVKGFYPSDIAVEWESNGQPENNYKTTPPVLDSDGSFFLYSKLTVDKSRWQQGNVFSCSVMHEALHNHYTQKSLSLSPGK
light: QIVLSQSPAILSASPGEKVTMTCRASSSVSYIHWFQQKPGSSPKPWIYATSNLASGVPVRFSGSGSGTSYSLTISRVEAEDAATYYCQQWTSNPPTFGGGTKLEIKRTVAAPSVFIFPPSDEQLKSGTASVVCLLNNFYPREAKVQWKVDNALQSGNSQESVTEQDSKDSTYSLSSTLTLSKADYEKHKVYACEVTHQGLSSPVTKSFNRGEC
notes: also called 2-5; 1-15
In the case of B1, the “Corrected response (RU), Mean” value in experiment [1] worked out at 14.3 RU. The “Corrected response (RU)” value in experiment [2] came to 14.6 RU; in experiment [3], 11.2 RU; in experiment [4], 17.3 RU.

B2: anti-CD20 human IgG1 L234D/L235H/G236R (antibody)
heavy: QVQLQQPGAELVKPGASVKMSCKASGYTFTSYNMHWVKQTPGRGLEWIGAIYPGNGDTSYNQKFKGKATLTADKSSSTAYMQLSSLTSEDSAVYYCARSTYYGGDWYFNVWGAGTTVTVSSASTKGPSVFPLAPSSKSTSGGTAALGCLVKDYFPEPVTVSWNSGALTSGVHTFPAVLQSSGLYSLSSVVTVPSSSLGTQTYICNVNHKPSNTKVDKKVEPKSCDKTHTCPPCPAPEDHRGPSVFLFPPKPKDTLMISRTPEVTCVVVDVSHEDPEVKFNWYVDGVEVHNAKTKPREEQYNSTYRVVSVLTVLHQDWLNGKEYKCKVSNKALPAPIEKTISKAKGQPREPQVYTLPPSRDELTKNQVSLTCLVKGFYPSDIAVEWESNGQPENNYKTTPPVLDSDGSFFLYSKLTVDKSRWQQGNVFSCSVMHEALHNHYTQKSLSLSPGK
light: QIVLSQSPAILSASPGEKVTMTCRASSSVSYIHWFQQKPGSSPKPWIYATSNLASGVPVRFSGSGSGTSYSLTISRVEAEDAATYYCQQWTSNPPTFGGGTKLEIKRTVAAPSVFIFPPSDEQLKSGTASVVCLLNNFYPREAKVQWKVDNALQSGNSQESVTEQDSKDSTYSLSSTLTLSKADYEKHKVYACEVTHQGLSSPVTKSFNRGEC
notes: also called 2-6; 1-21
In the case of B2, in experiment [1], the “Corrected response (RU), Mean” value came to 5.2 RU. Also, the “Corrected response (RU)” value in experiment [2] came out at 4.3 RU; in experiment [3] it was 3.8 RU; in experiment [4] it was 7.7 RU.

B3: anti-CD20 human IgG1 L234T/L235V/G236R (antibody)
heavy: QVQLQQPGAELVKPGASVKMSCKASGYTFTSYNMHWVKQTPGRGLEWIGAIYPGNGDTSYNQKFKGKATLTADKSSSTAYMQLSSLTSEDSAVYYCARSTYYGGDWYFNVWGAGTTVTVSSASTKGPSVFPLAPSSKSTSGGTAALGCLVKDYFPEPVTVSWNSGALTSGVHTFPAVLQSSGLYSLSSVVTVPSSSLGTQTYICNVNHKPSNTKVDKKVEPKSCDKTHTCPPCPAPETVRGPSVFLFPPKPKDTLMISRTPEVTCVVVDVSHEDPEVKFNWYVDGVEVHNAKTKPREEQYNSTYRVVSVLTVLHQDWLNGKEYKCKVSNKALPAPIEKTISKAKGQPREPQVYTLPPSRDELTKNQVSLTCLVKGFYPSDIAVEWESNGQPENNYKTTPPVLDSDGSFFLYSKLTVDKSRWQQGNVFSCSVMHEALHNHYTQKSLSLSPGK
light: QIVLSQSPAILSASPGEKVTMTCRASSSVSYIHWFQQKPGSSPKPWIYATSNLASGVPVRFSGSGSGTSYSLTISRVEAEDAATYYCQQWTSNPPTFGGGTKLEIKRTVAAPSVFIFPPSDEQLKSGTASVVCLLNNFYPREAKVQWKVDNALQSGNSQESVTEQDSKDSTYSLSSTLTLSKADYEKHKVYACEVTHQGLSSPVTKSFNRGEC
notes: also called 2-64
As to B3, the “Corrected response (RU), Mean” value in experiment [1] amounted to 3.9 RU. The figures for the “Corrected response (RU)” value in experiment [3] and in experiment [4] were 3.6 RU and 5.4 RU, respectively.

B4: anti-CD20 human IgG1 L234D/L235T/G236R (antibody)
heavy: QVQLQQPGAELVKPGASVKMSCKASGYTFTSYNMHWVKQTPGRGLEWIGAIYPGNGDTSYNQKFKGKATLTADKSSSTAYMQLSSLTSEDSAVYYCARSTYYGGDWYFNVWGAGTTVTVSSASTKGPSVFPLAPSSKSTSGGTAALGCLVKDYFPEPVTVSWNSGALTSGVHTFPAVLQSSGLYSLSSVVTVPSSSLGTQTYICNVNHKPSNTKVDKKVEPKSCDKTHTCPPCPAPEDTRGPSVFLFPPKPKDTLMISRTPEVTCVVVDVSHEDPEVKFNWYVDGVEVHNAKTKPREEQYNSTYRVVSVLTVLHQDWLNGKEYKCKVSNKALPAPIEKTISKAKGQPREPQVYTLPPSRDELTKNQVSLTCLVKGFYPSDIAVEWESNGQPENNYKTTPPVLDSDGSFFLYSKLTVDKSRWQQGNVFSCSVMHEALHNHYTQKSLSLSPGK
light: QIVLSQSPAILSASPGEKVTMTCRASSSVSYIHWFQQKPGSSPKPWIYATSNLASGVPVRFSGSGSGTSYSLTISRVEAEDAATYYCQQWTSNPPTFGGGTKLEIKRTVAAPSVFIFPPSDEQLKSGTASVVCLLNNFYPREAKVQWKVDNALQSGNSQESVTEQDSKDSTYSLSSTLTLSKADYEKHKVYACEVTHQGLSSPVTKSFNRGEC
notes: also called 2-11; 1-30
On to B4, for which the “Corrected response (RU), Mean” value in experiment [1] is 4.3 RU. For the same molecule, the figures for the “Corrected response (RU)” value in experiment [2], in experiment [3] and in experiment [4] were 3 RU, 4.3 RU and 5.5 RU, respectively.

B5: anti-CD20 human IgG1 L234R/G236R (antibody)
heavy: not shown
light: QIVLSQSPAILSASPGEKVTMTCRASSSVSYIHWFQQKPGSSPKPWIYATSNLASGVPVRFSGSGSGTSYSLTISRVEAEDAATYYCQQWTSNPPTFGGGTKLEIKRTVAAPSVFIFPPSDEQLKSGTASVVCLLNNFYPREAKVQWKVDNALQSGNSQESVTEQDSKDSTYSLSSTLTLSKADYEKHKVYACEVTHQGLSSPVTKSFNRGEC
notes: also called 2-41
B5: in experiment [1], the “Corrected response (RU), Mean” value is 5.2 RU. For the same molecule, the “Corrected response (RU)” value in experiment [3] came out at 3.9 RU; in experiment [4], 10.7 RU.

B6: anti-CD20 human IgG1 L234D/L235S/G236R (antibody)
heavy: QVQLQQPGAELVKPGASVKMSCKASGYTFTSYNMHWVKQTPGRGLEWIGAIYPGNGDTSYNQKFKGKATLTADKSSSTAYMQLSSLTSEDSAVYYCARSTYYGGDWYFNVWGAGTTVTVSSASTKGPSVFPLAPSSKSTSGGTAALGCLVKDYFPEPVTVSWNSGALTSGVHTFPAVLQSSGLYSLSSVVTVPSSSLGTQTYICNVNHKPSNTKVDKKVEPKSCDKTHTCPPCPAPEDSRGPSVFLFPPKPKDTLMISRTPEVTCVVVDVSHEDPEVKFNWYVDGVEVHNAKTKPREEQYNSTYRVVSVLTVLHQDWLNGKEYKCKVSNKALPAPIEKTISKAKGQPREPQVYTLPPSRDELTKNQVSLTCLVKGFYPSDIAVEWESNGQPENNYKTTPPVLDSDGSFFLYSKLTVDKSRWQQGNVFSCSVMHEALHNHYTQKSLSLSPGK
light: QIVLSQSPAILSASPGEKVTMTCRASSSVSYIHWFQQKPGSSPKPWIYATSNLASGVPVRFSGSGSGTSYSLTISRVEAEDAATYYCQQWTSNPPTFGGGTKLEIKRTVAAPSVFIFPPSDEQLKSGTASVVCLLNNFYPREAKVQWKVDNALQSGNSQESVTEQDSKDSTYSLSSTLTLSKADYEKHKVYACEVTHQGLSSPVTKSFNRGEC
notes: also called 2-10; 1-29
In the case of B6, the “Corrected response (RU), Mean” value in experiment [1] was 3.4 RU. The “Corrected response (RU)” value turned out to be 2.7 RU in experiment [3] and 3.6 RU in experiment [4].

B7: anti-CD20 human IgG1 L234E/L235D/G236R (antibody)
heavy: QVQLQQPGAELVKPGASVKMSCKASGYTFTSYNMHWVKQTPGRGLEWIGAIYPGNGDTSYNQKFKGKATLTADKSSSTAYMQLSSLTSEDSAVYYCARSTYYGGDWYFNVWGAGTTVTVSSASTKGPSVFPLAPSSKSTSGGTAALGCLVKDYFPEPVTVSWNSGALTSGVHTFPAVLQSSGLYSLSSVVTVPSSSLGTQTYICNVNHKPSNTKVDKKVEPKSCDKTHTCPPCPAPEEDRGPSVFLFPPKPKDTLMISRTPEVTCVVVDVSHEDPEVKFNWYVDGVEVHNAKTKPREEQYNSTYRVVSVLTVLHQDWLNGKEYKCKVSNKALPAPIEKTISKAKGQPREPQVYTLPPSRDELTKNQVSLTCLVKGFYPSDIAVEWESNGQPENNYKTTPPVLDSDGSFFLYSKLTVDKSRWQQGNVFSCSVMHEALHNHYTQKSLSLSPGK
light: QIVLSQSPAILSASPGEKVTMTCRASSSVSYIHWFQQKPGSSPKPWIYATSNLASGVPVRFSGSGSGTSYSLTISRVEAEDAATYYCQQWTSNPPTFGGGTKLEIKRTVAAPSVFIFPPSDEQLKSGTASVVCLLNNFYPREAKVQWKVDNALQSGNSQESVTEQDSKDSTYSLSSTLTLSKADYEKHKVYACEVTHQGLSSPVTKSFNRGEC
notes: also called 2-12; 1-33
As for B7, the “Corrected response (RU), Mean” value in experiment [1] is 12.3 RU. For the same molecule, the “Corrected response (RU)” value in experiment [2] was found to be 15.1 RU; in experiment [3] it was 9.4 RU; in experiment [4] it was 12.3 RU.

B8: anti-CD20 human IgG1 L234D/L235Q/G236R (antibody)
heavy: QVQLQQPGAELVKPGASVKMSCKASGYTFTSYNMHWVKQTPGRGLEWIGAIYPGNGDTSYNQKFKGKATLTADKSSSTAYMQLSSLTSEDSAVYYCARSTYYGGDWYFNVWGAGTTVTVSSASTKGPSVFPLAPSSKSTSGGTAALGCLVKDYFPEPVTVSWNSGALTSGVHTFPAVLQSSGLYSLSSVVTVPSSSLGTQTYICNVNHKPSNTKVDKKVEPKSCDKTHTCPPCPAPEDQRGPSVFLFPPKPKDTLMISRTPEVTCVVVDVSHEDPEVKFNWYVDGVEVHNAKTKPREEQYNSTYRVVSVLTVLHQDWLNGKEYKCKVSNKALPAPIEKTISKAKGQPREPQVYTLPPSRDELTKNQVSLTCLVKGFYPSDIAVEWESNGQPENNYKTTPPVLDSDGSFFLYSKLTVDKSRWQQGNVFSCSVMHEALHNHYTQKSLSLSPGK
light: QIVLSQSPAILSASPGEKVTMTCRASSSVSYIHWFQQKPGSSPKPWIYATSNLASGVPVRFSGSGSGTSYSLTISRVEAEDAATYYCQQWTSNPPTFGGGTKLEIKRTVAAPSVFIFPPSDEQLKSGTASVVCLLNNFYPREAKVQWKVDNALQSGNSQESVTEQDSKDSTYSLSSTLTLSKADYEKHKVYACEVTHQGLSSPVTKSFNRGEC
notes: also called 2-9; 1-27
In the case of B8, the “Corrected response (RU), Mean” value in experiment [1] stood at 6.2 RU. In addition, the results for the “Corrected response (RU)” value in experiment [2], in experiment [3] and in experiment [4] were 5.7 RU, 5.9 RU and 7.1 RU, respectively.
